Experimental data taken from US20250145729A1 (DENALI THERAPEUTICS, published 2025).
Changes are numbered by the printed parent chain. In names and notes the source's numbering stands.

T1: circularly permuted human TfR apical domain (human)
T1 construct: TfR residues 326-379 stand N-terminal to 194-296, loop 297-325 deleted; also called huTfR Apical Domain
T1 chain: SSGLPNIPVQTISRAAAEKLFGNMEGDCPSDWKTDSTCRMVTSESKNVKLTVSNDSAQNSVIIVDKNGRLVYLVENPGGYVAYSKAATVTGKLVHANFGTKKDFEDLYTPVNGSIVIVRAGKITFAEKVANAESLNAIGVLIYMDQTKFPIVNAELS

T2: circularly permuted cyno TfR apical domain (cynomolgus monkey)
T2 construct: same design as the human construct; also called cyTfR Apical Domain; cynomolgus TfR apical domain
T2 chain: T1 chain with R39K, S45N, N47S, R69G, Y108D, T109S, N153K, E155D

T3: human CD98hc (human, UniProt P08195 109-529)
T3 construct: also called huCD98hc; CD98 heavy chain
T3 sequence: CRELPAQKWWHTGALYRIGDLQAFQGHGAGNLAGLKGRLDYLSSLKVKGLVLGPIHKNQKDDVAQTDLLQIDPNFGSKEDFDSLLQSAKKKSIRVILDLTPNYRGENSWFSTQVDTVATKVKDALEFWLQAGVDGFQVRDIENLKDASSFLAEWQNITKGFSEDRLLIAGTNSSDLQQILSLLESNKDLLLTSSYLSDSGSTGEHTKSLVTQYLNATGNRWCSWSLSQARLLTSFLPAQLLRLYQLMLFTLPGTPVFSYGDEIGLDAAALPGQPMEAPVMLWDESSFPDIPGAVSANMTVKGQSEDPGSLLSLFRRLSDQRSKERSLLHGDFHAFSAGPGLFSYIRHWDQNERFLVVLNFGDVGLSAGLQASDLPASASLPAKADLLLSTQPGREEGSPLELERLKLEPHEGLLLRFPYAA

T4: human CD98hc (human, UniProt P08195 109-529)
T4 construct: The construct used on the Biacore is not described; also called CD98 heavy chain; 4F2 heavy chain
T4 sequence: T3 sequence

T5: human CD98hc (human, UniProt P08195 109-529)
T5 construct: also called huCD98hc; CD98 heavy chain
T5 sequence: T3 sequence

B1: 42.2.1.2 mono (Fc fusion)
chain 1: APEAAGGPSVFLFPPKPKDTLMISRTPEVTCVVVDVSHEDPEVKFNWYVDGVEVHNAKTKPREEQYNSTYRVVSVLTVLHQDWLNGKEYKCKVSNKALGAPIEKTISKAKGQPREPQVYTLPPSRDELTKNQVSLWCLVKGFYPSDIAVEWFYDDSKLTNYKTTPPVLDSDGSFFLYSKLTVDKSRWQQGNLFACEVMHEALHNHYTYKLLSLSPGK
chain 2: APEAAGGPSVFLFPPKPKDTLMISRTPEVTCVVVDVSHEDPEVKFNWYVDGVEVHNAKTKPREEQYNSTYRVVSVLTVLHQDWLNGKEYKCKVSNKALGAPIEKTISKAKGQPREPQVYTLPPSRDELTKNQVSLSCAVKGFYPSDIAVEWESNGQPENNYKTTPPVLDSDGSFFLVSKLTVDKSRWQQGNVFSCSVMHEALHNHYTQKSLSLSPGK
notes: knob+P329G+LALA with TfR site, hole+P329G+LALA without
B2: 42.2.1.20 mono (Fc fusion)
chain 1: B1 chain 1 with Y153A, D155A, L158Q, T159R
chain 2: B1 chain 2
notes: as for B1
B3: 42.2.3.1C mono (Fc fusion)
chain 1: B1 chain 1 with Y153G, D154T, D155N, S156K, L158E
chain 2: B1 chain 2
notes: as for B1
B4: 42.2.3.1H mono (Fc fusion)
chain 1: B1 chain 1 with D154G, D155N, S156A, L158E
chain 2: B1 chain 2
notes: as for B1
B5: 42.2.3.3 mono (Fc fusion)
chain 1: B1 chain 1 with Y153T, D155N, S156Y, L158E
chain 2: B1 chain 2
notes: as for B1
B6: 42.2.3.4 mono (Fc fusion)
chain 1: B1 chain 1 with Y153A, D154G, D155G, S156G, L158E
chain 2: B1 chain 2
notes: as for B1
B7: 42.2.3.5 mono (Fc fusion)
chain 1: B1 chain 1 with D154G, D155N, S156G, L158E
chain 2: B1 chain 2
notes: as for B1
B8: 42.2.5.2 mono (Fc fusion)
chain 1: B1 chain 1 with Y153S, D155G, L158E, Q189P, G190R, N191G, S212G, L213E
chain 2: B1 chain 2
notes: as for B1
B9: 42.2.5.4 mono (Fc fusion)
chain 1: B1 chain 1 with Y153S, D155G, L158E, G190Q, N191G, S212G, L213Y
chain 2: B1 chain 2
notes: as for B1
B10: 42.2.7.2 mono (Fc fusion)
chain 1: B1 chain 1 with Y153S, D155G, L158E, H203E, N204G
chain 2: B1 chain 2
notes: M428 kept here
B11: 42.2.19 mono (Fc fusion)
chain 1: B1 chain 1 with Q189P, G190R, N191G, S212G, L213E
chain 2: B1 chain 2
notes: as for B1
B12: Clone 33: LLB2-10-8-d6 bivalent, non-binding Fabs (Fc fusion)
chain: APELLGGPSVFLFPPKPKDTLMISRTPEVTCVVVDVSHEDPEVKFNWYVDGVEVHNAKTKPREEQYNSTYRVVSVLTVLHQDWLNGKEYKCKVSNKALPAPIEKTISKAKGQPREPQVYTLPPSRDELTKNQVSLTCLVKGFYPSDIAVLWNSRFVLENNYKTTPPVLDSDGSFFLYSKLTVDKSRWQQGNVFACNVYHEALHNHYTFKNLALSPGK
notes: bivalent; effector positive
B13: Clone 36: LLB2-10-8 bivalent, non-binding Fabs, effector negative (Fc fusion)
chain: B12 chain with L4A, L5A, P99G, N191E, V192I
B14: LLB1-3-16-2 (Fc fusion)
chain: APELLGGPSVFLFPPKPKDTLMISRTPEVTCVVVDVSHEDPEVKFNWYVDGVEVHNAKTKPREEQYNSTYRVVSVLTVLHQDWLNGKEYKCKVSNKALPAPIEKTISKAKGQPREPQVYTLPPSRDELTKNQVSLTCLVKGFYPSDIAVEWRTYKPYETNYKTTPPVLDSDGSFFLYSKLTVDKSRWQQGDIFVCDVMHEALHNHFTIKKLSLSPGK
B15: LLB1-3 D380E (Fc fusion)
chain: B14 chain with T153S, T159N, D191N, F206Y
B16: LLB1-3-4-1 (Fc fusion)
chain: B14 chain with T159N, D191N, F206Y
B17: LLB1-3-10-1 (Fc fusion)
chain: B14 chain with T153S, T159N, D191N, M198L, F206Y
B18: LLB1-3-14-1 (Fc fusion)
chain: B14 chain with T153S, T159N, M198L, F206Y
B19: LLB1-3-16 (Fc fusion)
chain: B14 chain with M198L
notes: also called Clone 1-3-16; LLB1-1-3-16
B20: LLB1-3-25-1 (Fc fusion)
chain: B14 chain with M198L
notes: a difference, if any, lies outside the printed positions
B21: LLB1-3-31-2 (Fc fusion)
chain: B14 chain with K210S
B22: LLB1-3-25-2 (Fc fusion)
chain: B14 chain
notes: as for B20
B23: LLB2-10-8.d20 (Fc fusion)
chain: B12 chain with N152S, R154H, F155Y, V156E
notes: Fc part only
B24: LLB2-10-8.d21 (Fc fusion)
chain: B12 chain with N152S
notes: Fc part only
B25: LLB2-10-8.d22 (Fc fusion)
chain: B12 chain with N152S, R154K, V156E
notes: Fc part only
B26: LLB2-10-8.d23 (Fc fusion)
chain: B12 chain with N152S, R154Q, F155Y, V156E
notes: Fc part only
B27: LLB2-10-8.d24 (Fc fusion)
chain: B12 chain with F155Y
notes: Fc part only
B28: LLB2-10-8.d25 (Fc fusion)
chain: B12 chain with V156Q
notes: Fc part only
B29: LLB2-10-8.d26 (Fc fusion)
chain: B12 chain with L157P
notes: Fc part only
B30: LLB2-10-8.d27 (Fc fusion)
chain: B12 chain with V156Q, L157P
notes: Fc part only
B31: LLB2-10-8.d28 (Fc fusion)
chain: B12 chain with N152S, F155Y
notes: Fc part only
B32: LLB2-10-8.d29 (Fc fusion)
chain: B12 chain with N152S, V156Q
notes: Fc part only
B33: LLB2-10-8.d30 (Fc fusion)
chain: B12 chain with R154Q, V156E
notes: Fc part only
B34: LLB2-10-8.d31 (Fc fusion)
chain: B12 chain with R154Q, F155Y, V156Q
notes: Fc part only
B35: LLB2-10-8.d32 (Fc fusion)
chain: B12 chain with N152S, R154Q, V156E
notes: Fc part only

Molecular target: T1, circularly permuted human TfR apical …
Assay: method not named for this table (Biacore elsewhere)

Binder | Kd [nM]
B1 | 284
B2 | 440
B3 | 1000
B4 | 220
B5 | 360
B6 | 181
B7 | 260
B8 | 180
B9 | 400
B10 | 162
B11 | 79

Molecular target: T2, circularly permuted cyno TfR apical …
Assay: as above

Binder | Kd [nM]
B1 | 7000
B2 | 7000
B3 | 10000
B4 | 2000
B5 | 8000
B6 | 4000
B7 | 1800
B8 | 2000
B9 | 6500
B10 | 10000
B11 | 1100

Molecular target: T3, human CD98hc
Assay: affinity as listed in study design table; method not given there

Binder | Kd [nM]
B12 | 550
B13 | 100 to 200

Molecular target: T4, human CD98hc
Assay: SPR (Biacore); format not stated
Description: A second round of affinity maturation using phage display was performed to increase the affinity of the LLB1 family to CD98hc (Table 11). The backbone of the library was the clone LLB1-3. Library LLB1-AM3 expands the library positions from the original clone using NHK or ARY. Library LLB1-AM4 expands the libraries and includes a mixture of residues that were found previously at those positions in the LLB1 family. The library was assembled using Kunkel mutagenesis and screened to human CD98hc. […] The format was anti-BACE1 Fabs having full effector function and in a bivalent format (i.e., no knob and hole mutations). Cell binding of the clones was also tested in HeLa cells for huCD98hc binding, CHO:cyCD98hc cells for cyno binding, and CHO cells as a negative control.

Binder | Kd [nM]
B14 | 175
B15 | 1000
B16 | 880
B17 | 470
B18 | 330
B19 | 32
B20 | 42
B21 | 1200
B22 | 160

Molecular target: T5, human CD98hc
Assay: SPR (Biacore)
Description: Variants that bound with measurable affinity from this round of engineering are shown in Table A12 and the corresponding human binding affinity by surface plasmon resonance (SPR) using a Biacore™ machine are shown in Table 9B. Cell binding of the clones was also tested in HeLa cells for huCD98hc binding and CHO cells as a negative control.

Binder | Kd [nM] | binding result
B23 | 2300 | 
B24 | 2000 | 
B25 | 5200 | 
B26 | 1800 | 
B27 | 2600 | 
B28 | 670 | 
B29 |  | no binding
B30 |  | no binding
B31 | 4200 | 
B32 | 1300 | 
B33 | 1000 | 
B34 | 460 | 
B35 | 3100 | 
